Where “and” joins values, the source holds several entries; their conditions need not be identical. Equal values may be shown once.
Tests used:
[1] = target: Nrl1 (full length), BACTH fusion (S. pombe) (UniProt O42975); assay: two-hybrid; bacterial two-hybrid (BACTH) in E. coli BTH101; Nrl1 or its truncations in pUT18C, RNA-processing factors in pKT25; β-galactosidase activity assay at 28 °C in Miller units; eight biological replicates
[2] = target: Nrl1(C-term), C-terminal region (493–972 aa), BACTH fusion (S. pombe) (UniProt O42975); assay: as above
[3] = target: Nrl1 (full length), BACTH fusion (S. pombe) (UniProt O42975); assay: two-hybrid; bacterial two-hybrid (BACTH) in E. coli BTH101; full-length ORFs in pUT18C and pKT25, both combinations; X-gal/IPTG plates and β-galactosidase activity assay at 28 °C in Miller units; eight biological replicates
[4] = target: Nrl1(N-term + NRDE-2), N-terminus with NRDE2 domain (1–492 aa), BACTH fusion (S. pombe) (UniProt O42975); assay: two-hybrid; bacterial two-hybrid (BACTH) in E. coli BTH101; Nrl1 or its truncations in pUT18C, RNA-processing factors in pKT25; β-galactosidase activity assay at 28 °C in Miller units; eight biological replicates
[5] = target: Nrl1(N-term), N-terminal region (1–159 aa), BACTH fusion (S. pombe) (UniProt O42975); assay: as above

β-galactosidase activity (Miller units) [1]	β-galactosidase activity (Miller units) [2]	β-galactosidase activity (Miller units) [3]	β-galactosidase activity (Miller units) [4]	β-galactosidase activity (Miller units) [5]	Substance
1080 Miller units	708 Miller units	977 Miller units and 1090 Miller units			Ctr1, BACTH fusion (natural protein)
1460 Miller units		1440 Miller units and 1450 Miller units	1560 Miller units	1510 Miller units	Mtl1, BACTH fusion (natural protein)
583 Miller units	495 Miller units	739 Miller units and 467 Miller units			Ntr2, BACTH fusion (natural protein)
